{"source": "the RNAGym collection of RNA variant scans (doi:10.1073/pnas.2313332121)", "parents": {"B1": {"name": "TPR 5TU (parent)", "chain": "GGAUCUUCUCGAUCUAACAAAAAAGACAAAUCUGCCACAAAGCUUGAGAGCAUCUUCGGAUGCAGAGGCGGCAGCCUUCGGUGGCGCGAUAGCGCCAACGUUCUCAACUAUGACACGCAAAACGCGUGCUCCGUUGAAUGGAGUUUAUCAUG"}}, "note": "This sample holds only a part of the variants without activity."}
{"variants_of": "B1", "experiment": "polymerase ribozyme fitness, log enrichment relative to wild type (log ratio); higher = more active; in vitro selection for triplet polymerase activity", "in_short": "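Both subunits of a heterodimeric triplet polymerase ribozyme were given their own mutant library, built by PCR and transcribed. Each library was annealed with a biotinylated primer, the partner subunit and triplets, incubated frozen at −7 °C, and its extended constructs gel-excised, captured on streptavidin beads and amplified by RT-PCR, all in one round done in triplicate. Fitness is the logarithm of genotype enrichment relative to wild-type enrichment, with replicates averaged by inverse-variance weighting. That logarithm is base 2, and Illumina-sequenced genotypes needed ≥10 input reads and ≥1 read per output.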"}
{"variant": "A41C C95U", "polymerase ribozyme fitness (log ratio)": -2.15}
{"variant": "A41C C95G", "polymerase ribozyme fitness (log ratio)": -0.72}
{"variant": "A41U C93A", "polymerase ribozyme fitness (log ratio)": -3.19}
{"variant": "G42C U44A C54G A91U C99U G143C U145C", "polymerase ribozyme fitness (log ratio)": "≤ -4.2"}
{"variant": "A41U G74A C103U C114U U134C", "polymerase ribozyme fitness (log ratio)": "≤ -4.2"}
{"variant": "G42C A49G C54G G83C C85U C96A", "polymerase ribozyme fitness (log ratio)": "≤ -4.2"}
{"variant": "A41C G58C U82G A106G A137G", "polymerase ribozyme fitness (log ratio)": -2.57}
{"variant": "A41U G68C A91U U102C", "polymerase ribozyme fitness (log ratio)": "≤ -4.2"}
{"variant": "A41C C63G G70C C85U A97C U144A", "polymerase ribozyme fitness (log ratio)": "≤ -4.2"}
{"variant": "A41C U61A G143C", "polymerase ribozyme fitness (log ratio)": -3.94}
{"variant": "A41G C75G G92C U146A", "polymerase ribozyme fitness (log ratio)": "≤ -4.2"}
{"variant": "G42A U44G U56A G81C C85A G117U", "polymerase ribozyme fitness (log ratio)": "≤ -4.2"}
{"variant": "A41C G59C C75U G83C", "polymerase ribozyme fitness (log ratio)": -2.72}
{"variant": "A41C U44A G84A U146G", "polymerase ribozyme fitness (log ratio)": "≤ -4.2"}
{"variant": "G42C U56A G84U A121C", "polymerase ribozyme fitness (log ratio)": "≤ -4.2"}
{"variant": "A41U C85A A98G A122U G152U", "polymerase ribozyme fitness (log ratio)": "≤ -4.2"}
{"variant": "A41C G59C U82C G86C C108G G141U", "polymerase ribozyme fitness (log ratio)": "≤ -4.2"}
{"variant": "A41U G50C C76U C93G A138G A150U", "polymerase ribozyme fitness (log ratio)": "≤ -4.2"}
{"variant": "G42C U44A G70C C96U G126U G141A", "polymerase ribozyme fitness (log ratio)": "≤ -4.2"}
{"variant": "A41U C87U A137U G143U", "polymerase ribozyme fitness (log ratio)": "≤ -4.2"}
{"variant": "G42A A52C C54A U56C G94C", "polymerase ribozyme fitness (log ratio)": "≤ -4.2"}
{"variant": "A41G G143U", "polymerase ribozyme fitness (log ratio)": -1.73}
{"variant": "A41G A49U G59U C85A C105U A106G A121U U134C", "polymerase ribozyme fitness (log ratio)": "≤ -4.2"}
{"variant": "G42A G74C G83C A107U G112C", "polymerase ribozyme fitness (log ratio)": "≤ -4.2"}
{"variant": "G42A G58A A64C G65U G84U", "polymerase ribozyme fitness (log ratio)": "≤ -4.2"}
{"variant": "G42A G50C U55A G84A G143U", "polymerase ribozyme fitness (log ratio)": "≤ -4.2"}
{"variant": "A41U A89U C93U G117U A147U", "polymerase ribozyme fitness (log ratio)": -2.89}
{"variant": "G42A C43A G48A G50C A66C C85U", "polymerase ribozyme fitness (log ratio)": "≤ -4.2"}
{"variant": "G42C U44A A49C G126C C131A A142G A147U", "polymerase ribozyme fitness (log ratio)": "≤ -4.2"}
{"variant": "A41C U45G U53A G83C A91U C93U A115G U144A", "polymerase ribozyme fitness (log ratio)": "≤ -4.2"}
{"variant": "A41U U55A A142G", "polymerase ribozyme fitness (log ratio)": -2.45}
{"variant": "G42C A60U G92U A119U C125A", "polymerase ribozyme fitness (log ratio)": "≤ -4.2"}
{"variant": "A41C U55A G94A G112U U134A", "polymerase ribozyme fitness (log ratio)": "≤ -4.2"}
{"variant": "G42A C54U G117A", "polymerase ribozyme fitness (log ratio)": "≤ -4.2"}
{"variant": "A41U A49C", "polymerase ribozyme fitness (log ratio)": -3.83}
{"variant": "G42C A60G", "polymerase ribozyme fitness (log ratio)": -4.05}
{"variant": "A41C C75U C87A U148A", "polymerase ribozyme fitness (log ratio)": "≤ -4.2"}
{"variant": "A41C C93U A97C U102G", "polymerase ribozyme fitness (log ratio)": "≤ -4.2"}
{"variant": "G42C C79G G124C", "polymerase ribozyme fitness (log ratio)": "≤ -4.2"}
{"variant": "A41C U53G", "polymerase ribozyme fitness (log ratio)": -3.43}
{"variant": "G42C U44G A49U U56C G94U U111C G143A", "polymerase ribozyme fitness (log ratio)": "≤ -4.2"}
{"variant": "A41C G50A G86U A137C C149A", "polymerase ribozyme fitness (log ratio)": "≤ -4.2"}
{"variant": "A41C G80C", "polymerase ribozyme fitness (log ratio)": -4.11}
{"variant": "G42C C43G U56A G59U C85U C125A U127C", "polymerase ribozyme fitness (log ratio)": "≤ -4.2"}
{"variant": "G42A U61A G84C G133U U144G", "polymerase ribozyme fitness (log ratio)": "≤ -4.2"}
{"variant": "A41C C85U C99G C132G U139A", "polymerase ribozyme fitness (log ratio)": "≤ -4.2"}
{"variant": "G42U A98U U102G A120U C132G U135A A147C", "polymerase ribozyme fitness (log ratio)": "≤ -4.2"}
{"variant": "A41U G83C G126A", "polymerase ribozyme fitness (log ratio)": -2.3}
{"variant": "G42A A73G C87U", "polymerase ribozyme fitness (log ratio)": "≤ -4.2"}
{"variant": "A41G U53A U56C C76A A98G", "polymerase ribozyme fitness (log ratio)": -1.92}
{"variant": "G42C G86C", "polymerase ribozyme fitness (log ratio)": "≤ -4.2"}
{"variant": "G42C G86U", "polymerase ribozyme fitness (log ratio)": "≤ -4.2"}
{"variant": "A41G C95U A122G C149A", "polymerase ribozyme fitness (log ratio)": "≤ -4.2"}
{"variant": "G42A C93A U102G U135A", "polymerase ribozyme fitness (log ratio)": "≤ -4.2"}
{"variant": "A41C G67C G68A G88C G92A A107C", "polymerase ribozyme fitness (log ratio)": "≤ -4.2"}
{"variant": "A41G G84A A89G C103G", "polymerase ribozyme fitness (log ratio)": -3.2}
{"variant": "A41U U56A C85A", "polymerase ribozyme fitness (log ratio)": -2.38}
{"variant": "A41U C87A A120C U139C A142U", "polymerase ribozyme fitness (log ratio)": "≤ -4.2"}
{"variant": "A41G U44A U55A", "polymerase ribozyme fitness (log ratio)": -3.41}
{"variant": "G42A A47U U53G A64U G94U A120U", "polymerase ribozyme fitness (log ratio)": "≤ -4.2"}
{"variant": "G42C C95A A142C", "polymerase ribozyme fitness (log ratio)": "≤ -4.2"}
{"variant": "G42A G59A", "polymerase ribozyme fitness (log ratio)": -4.11}
{"variant": "G42A G50U U53A U55A G83A U90C U144A", "polymerase ribozyme fitness (log ratio)": "≤ -4.2"}
{"variant": "G42A A49C C54U C95U C118U", "polymerase ribozyme fitness (log ratio)": "≤ -4.2"}
{"variant": "G42C C105G", "polymerase ribozyme fitness (log ratio)": "≤ -4.2"}
{"variant": "A41G C76A U77G G112A C116U A142C", "polymerase ribozyme fitness (log ratio)": "≤ -4.2"}
{"variant": "A41G U78C C116G", "polymerase ribozyme fitness (log ratio)": 0.0342}
{"variant": "G42U A91G G128U G133A", "polymerase ribozyme fitness (log ratio)": "≤ -4.2"}
{"variant": "A41C C103A", "polymerase ribozyme fitness (log ratio)": -1.44}
{"variant": "A41U C54U C63U U82A C95G A115U", "polymerase ribozyme fitness (log ratio)": "≤ -4.2"}
{"variant": "A41U G50U A64U C118G A150C", "polymerase ribozyme fitness (log ratio)": "≤ -4.2"}
{"variant": "A41G U53G", "polymerase ribozyme fitness (log ratio)": -0.77}
{"variant": "G42A C116G A150U", "polymerase ribozyme fitness (log ratio)": "≤ -4.2"}
{"variant": "G42A U55A C96A", "polymerase ribozyme fitness (log ratio)": -4.06}
{"variant": "A41C G46A U90A A150G", "polymerase ribozyme fitness (log ratio)": "≤ -4.2"}
{"variant": "G42A G48U A52U C75A U90C", "polymerase ribozyme fitness (log ratio)": "≤ -4.2"}
{"variant": "A41U G59A A73G A89U C93G A107G", "polymerase ribozyme fitness (log ratio)": "≤ -4.2"}
{"variant": "A41G A52G C87U U144G U148G", "polymerase ribozyme fitness (log ratio)": -3.95}
{"variant": "A41C G92U A98G C123G G133C U134A G152U", "polymerase ribozyme fitness (log ratio)": "≤ -4.2"}
{"variant": "A41G C75G", "polymerase ribozyme fitness (log ratio)": -2.98}
{"variant": "G42A G68C G94U", "polymerase ribozyme fitness (log ratio)": "≤ -4.2"}
{"variant": "G42A G58A G100C", "polymerase ribozyme fitness (log ratio)": "≤ -4.2"}
{"variant": "A41U G133U U135A A142G A147U", "polymerase ribozyme fitness (log ratio)": "≤ -4.2"}
